# Experimental data published in the DeepSol protein solubility set.
# Test: soluble on expression in E. coli; label from the status in PepcDB or PDB records
row,Sequence,soluble on expression in E. coli
1,MGSDKIHHHHHHMLDRKLLESLGGWQGYGVERVEWPEDPGRTLSIYLKPTAKVMLCEQCGARCRQVHETTVRRVRDLPLFEYRVVLHVPRRRLWCEQCGGPRLERLAWLGRYQRVTDRLAQACSQLLQSSNVQAVARFFELGWHTVKTLDKARLRASVREPDWSKIEYLAMDEFALHKGHRYATVVVDPIGRQVLWIGPGRSRETARAFFEQLPPGAAQRIKAVAIDMTTAYELEIQAHSPQAEIVYDLFHVVAKYGREVIDRVRVDQANQLRQDRPARRIIKSSRWLLLRNRDNLDRQQAVRLDELLQANQPLLTVYVLRDELKRLWFYQRPAWARQAWNHWYEQAEQSGIAALNTFAQRLKGYLHGILARCRHPLNTSIVEGINNTIKVIKRRAYGYRDQEYFFLKIRAAFPGNAR,not soluble
2,MGSDKIHHHHHHMSGLCAKCVDGCTGGCETWLASFRGREVLYPGPFGDITAGAVKDYPVDYSHLNILGYARGAEGLPEGVEPGPDTAIFTNVDTTTEYGWDIKVKMKVPIFTGALGSTEIARKNWDHIAVGAAISGITVVCGENVAGVDPDLELDSNGKVKKSPELDRRIEIYKRYHDGEYGEILIQMNVEDTRLGVAEYVINKHGIETIELKWGQGAKSIGGEIKVRSLERALELKRRGYIVLPDPELPEVQRAFKEGEIKEFERHSRLGFVSKESFLKEVERLRKLGFKRITLKTGAYSAVELAMALRYGAEAKVDLITVDGAPGGTGMSPWPMMNEWGIPTFYLEALTYQFAEKLSRRGIRVPDIAIAGGFSTEDGVLKAIAMGSPYVKAVCMGRALMIPAMVGKNIGEWLKSGNLPKTVSKYGTTVEEIFVTYEELRSRFGEEEVKKLPLGAIGVYTFVQKFKTGLQQLMAGARKFRLSALSRKDLIALTKDAAEISGIPYVMESYRDEAERILEE,not soluble
3,MSLALRSLIADARRLVVKVGSSLVTDDGRGLDQAAIARWAAQIAALRAAGKEVVLVSSGAIAEGMQRLGWTRRPKEIHELQAAAAVGQMGLAQVYESEFARHGIRTAQVLLTHGDLADRERYLNARSTLLTLLGLGVVPIINENDTVVTDEIKFGDNDTLGALVTNLIEGDALIILTDQRGLYTADPRKHPDARFVDEAQAGAPELEAMAGGAGSSIGKGGMLTKIVAAKRAAKSGAHTVIASGREADVLARLAGGEAIGTQLRAPTGRMAARKQWMIDHLQLRGRVVLDAGAVDKLTAGGKSLLPIGVTEVQGEFARGEVISCVDTAGREVARGLTNYSAAEARLIARKASSEIEAVLGYVSAAELVHRDNLVLLEGHHHHHH,soluble
4,MGHHHHHHSHMANVLCNRARLVSYLPGFCSLVKRVVNPKAFSTAGSSGSDESHVAAAPPDICSRTVWPDETMGPFGPQDQRFQLPGNIGFDCHLNGTASQKKSLVHKTLPDVLAEPLSSERHEFVMAQYVNEFQGNDAPVEQEINSAETYFESARVECAIQTCPELLRKDFESLFPEVANGKLMILTVTQKTKNDMTVWSEEVEIEREVLLEKFINGAKEICYALRAEGYWADFIDPSSGLAFFGPYTNNTLFETDERYRHLGFSVDDLGCCKVIRHSLWGTHVVVGSIFTNATPDSHIMKKLSGN,not soluble
5,MGSDKIHHHHHHMMEYWIRRALEVVKTPFLLFDLSVVEKKYLEMKAALKKADIYYAVKANSHPRIISLLARLGSNFDVASKGEIEKLLALGVDGKRMSFGNTIKREEDIAFAYKNGIRLFAVDSEMEVEKVAINAPGSFVFVRVETDGADADWPLSRKFGTNPEHALQLLSYASKMKLIPAGLSFHVGSQNLNPESWKKAIEIAGRVFKKAMRSGLNLFLLNVGGGFPVQHTKPIPSMEEIGKAIEEAIDENLWFVHNLKVIAEPGRYMVGEAGWLVTKVLLKSERSGEKWVYIDAGVFHGLAETIQNFEYEIRVLGKEREELEEYHLAGPTCDSVDVIYDRIFLPKSITLNDLVCFINAGAYTVEYNTRFNGIEPPKMVFIEELTEISIEEKIKTRVLD,not soluble
6,SMGKEKSKEPRDPDQLYSTLKSILQQVKSHQSAWPFMEPVKRTEAPGYYEVIRFPMDLKTMSERLKNRYYVSKKLFMADLQRVFTNCKEYNPPESEYYKCANILEKFFFSKIKEAGLID,soluble
7,MSLKIIAFYLPQFHQIKENDRWWGKGFTEWTNTKSAQPLFSGHYQPREPYQDFYYDLTTPSVRKWQAEIAKAYGIYGFCYYHYWFKGKRLLETPFNEVLKMKEPDFPFCLSWANEPWTKSWDGLDKHILMPQDYGDISDWKEHFDYLLQAFQDERYIYIDDKPLFIIYRPGHIPDCEKMLNYWNALARENGLKGIYFAETLNSFPLPNINGFDASIQFEPFYTIAHDSSSDINKVIYDSDMQLNVWDYDKVWMYILQRSLPKKKTFPGAFVDWDNTARRKNANSSIFVGSTPEKFTIYLSKQIHRTYSFYNSEFLFINAWNEWAEGTYLEPDKKYGFSYLEGVKNAIDRGMKAYKKDEGHHHHHH,soluble
8,MGSDKIHHHHHHMDAVQLKSFVAVAHEGNLTQAAKRLFLSQPAVSAQIKALEEYVGTPLFRRTGKGMVLTRAGEILLPEAESLLQYKHKLEHFAKTLAGDYSEETSLGIIHPIDSAKLVALTDNIGQTAPKTRLHIQYGMSGEILSRIQHKTLHGGFILGNAAQRGIRSVFLQNLTYALICPQSQYPHLTRSLPQSLQECVWIEMSGVSGSRKHLHQFWRSNRLSPKKQILCDYPQTIIDLVAGGIGVAMVPGNKAEAAAKEGAGVAIIESCRHSMPLNFIYAEEYEDNPHVSLLLECIEKVWGVQAVQPPVVSDN,not soluble
9,SGRLHCTEDPVPEAVGGDMQQLNQLGAQQFSALTEVLFHFLTEQKEVERFLAQLSEFATTNQISLGSLRSIVKSLLLVPNGALKKSLTAKQVQADFITLGLSEEKATYFSEKWKQNTPTLARWAIGQTLMINQLIDMEWKFGVTSGSSELEKVGSIFLQLKLVVKKGNQTKNVYIELTLPQFYSFLHEMERVRTSMECFC,soluble
10,MRVISGSKKGRSLKAVAGTSTRPTTDKVKESIFNMIGPYFDGGRGLDLFAGSGGLGIEALSRGFEHCIFVDRDFKAIQTVKSNLKTLELTKHAQVYRNDAERALHAAAKRETGFRGIFLDPPYKEQKLKALLTLIDEYQMLEEDGFIVAEHDREVELPETVEILLEHHHHHH,soluble
11,MQEVHDYGAYLILDEYGGVRAFLPWSEIASRAVRNIHAVLKPRQKVVVKVIRVYKKRGQVDVSLKRVMDSEKKRKMMFYKRYLKAATLVELIAEKLGKSVDEAYREVLWKLEDAYGDPMKGLEAAVLQGREALEKAGVPEEWIEPLLETAKTHVRVKTVKITFYLTLRSMAGDGVERVRKVLEAAKSQIESFKDSKVVARIYTVGAPKYRVELQGYNYKTLEKALEKMVEAARKTASKLGVEFSFERED,soluble
12,MAHHHHHHMEINISNITNSSNNKKERVNIHSHIKGLGVNTNIYLHENEISLSDEKYSMFFDNSCGLVGQFKAREASLFLVDLIKQKKLAGKCILLAGPSGSGKSALAIGISREINRKMPFVFLSGSEVYSNEIKKTEVILEAFRKSIHIKIKEEKLVYEGEVVDMVVEENECLYSLNKAKQINAIIITLKSVKGSKTLRLAPKIHEQIAREKIKIGDVIYIETNTGHVKRLGRCNDYAKEYDIEFDEYVSLPKGEVHKKKEVVQQISLHDIDLANANPTVGEDLASVLNSYLRPKKTEITEKLRVEINKTVNKFLESGLAEIIPGVLYIDEAHMLDIECFSYLNRAIESPLAPILIMATNRGICTVKGTDNIEPHGIPVDLLDRLIIIKTFPYTLKEIVQILALRAQTEKINITEEGMNYLAKIGIQSSLRFAMLLLEPSRILATLEGNTIIDIKHIEQADELFMDAKTSAHRVVDQSNKFVN,not soluble
13,MAHHHHHHMGKVRKNKQVRNLLKSLTERVDTDDGENEYARLTQTPVVSMRLSKVKFKTSLQNVLVEPYTERVKDFVAKNNYEIRMERALLDEIKNANQNMNRIGDVLSARGGKQGKTRDNHIIMSRYFHYLKDKDEDFGLSFFPVYKTFKSNASHFGDNLSSSLYPHELLQMGSMSSESFLKNSPKRISFPERGDS,not soluble
14,MAHHHHHHMYDVKSIHIFRKVKDKDKGKSVILRGLNDNFFNAILVCMYEIVIYLNFANCEDGSTNKPSNKKKKKKGDDRNETTYYVKSARNENNAYRSNVKEVISHNKNKKKINGASGNAAVTREEKGKAERSGDFPGGGENMNDDKENPNQITLWSSNNHEEFGYEYIKDIIKKEEKELYETDKMYHNSNDEYSSHTSDSVEQ,not soluble
15,SSLAISVANDDAGIFQPSLNALYGHPAADRGDYTAGLFLGYSHDLTDASQLSFHIAQDIYSPSGANKRKPEAVKGDRAFSAFLHTGLEWNSLATNWLRYRLGTDIGVIGPDAGGQEVQNRAHRIIGAEKYPAWQDQIENRYGYTAKGMVSLTPAIDILGVNVGFYPEVSAVGGNLFQYLGYGATVALGNDKTFNSDNGFGLLSRRGLIHTQKEGLIYKVFAGVERREVDKNYTLQGKTLQTKMETVDINKTVDEYRVGATIGYSPVAFSLSLNKVTSEFRTGDDYSYINGDITFFF,soluble
16,MVRANKRNEALRIESALLNKIAMLGTEKTAEAVGVDKSQISRWKRDWIPKFSMLLAVLEWGVVDDDMARLARQVAAILTNKKRPAATERSEQIQMEF,soluble
17,MSLNRNDKRGARRNILAHYDLGNALFERLLDPTMMYSAAQFEHPGQTLEQAQLHKLERICQKLELSPDDHLLEIGSGWGSLAIHAATRYGCRVTTTTLSEAQYSHTLERVKALGLGQRVQVLREDYRDLQGTFDKLVSIEMIEAVGHRYLPVYFRQCASLLKPEGLMLLQAITIRDQRYAQAQRSVDFIQRYIFPGGALPSLSVLLDTASRHTGLNLVHMEDFGLDYAHTLRHWRENLRQARTALTDLGYDDMFQRLWEFYLCYCQGGFEERAIGVAHLLWAAEGHHHHHH,soluble
18,MGSDKIHHHHHHMITRLHEPYLALLQQAMLAATPSGSRVALDLGCGDGSKTRWLRACSASDALIVGVDRDGSVLRAADDMMFIAGDASHLPLRDACIDLVWCIAALNLFPHRHLALREMWRVLRHGGTLVVASAGEYWVRLRNHPAPLIAALPDTPLPLPPADGLDEEWLLLMAAAGFQPRQTQAYLLDGGRLAQVALINSEALTSYLSLPPCASPVADPEPRHLLIVTSARKG,not soluble
19,MCFRTENGDFFGWEGVENTVGCGAGTCTHVWNYAQTVAFLFPELEQSMRRIEFLQETQADGYMPFRTYRPFGLPAWEMLPSADGQLGAVVRLYREWRLSGDNRLIEDCWDGVVRSMEYAIRTWDTDGDFVPDSAQHVTYDTELYGMTSMVSTLFFAALIAAAEMAEYMGDQERARRYRDGAEKGAKLMDEKCWNGEYYIQLIDDVDKYRYQYGKGCLSDQLLGQFLAQEAGLGYVLPKNHVKKAAESIFRYNFIERASDFGHVQRAYIFNDEMGLTPCTWPLGERPRFPFIYFGEVWTGIEYEVAALLIREDLLEEGLTIVKAVRDRQDGYRRNPWSENESGYYYTRAMASYSILNALSGFSCDQRKNQMSFQPKLNQDNFRCFWCNGKSWGIFSQKKEKGEIRQELQVLYGEKDVSVINLEHHHHHH,not soluble
20,GMLHYTKEDLLELGAEITTREIYQQPDVWREAFEFYQAKREEIAAFLQEIADKHDYIKVILTGAGTSAYVGDTLLPYFKEVYDERKWNFNAIATTDIVANPATYLKKDVATVLVSFARSGNSPESLATVDLAKSLVDELYQVTITCAADGKLALQAHGDDRNLLLLQPAVSNDAGFAMTSSFTSMMLTTLLVFDPTEFAVKSERFEVVSSLARKVLDKAEDVKELVDLDFNRVIYLGAGPFFGLAHEAQLKILELTAGQVATMYESPVGFRHGPKSLINDNTVVLVFGTTTDYTRKYDLDLVREVAGDQIARRVVLLSDQAFGLENVKEVALGCGGVLNDIYRVFPYIVYAQLFALLTSLKVENKPDTPSPTGTVNRVVQGVIIHEYQK,soluble
21,MVALFPSSPAEDLLAEGPCVMTGKGLHQLLLDRWGYSYGLQLRRTQGKIFLQIMWKYLEQASFPMDEGEYFSHLNEVASYLVALGAAEAIAQTIRETREKPRLGKAVSIPIELGARASEWFPDLEHHHHHH,soluble
